Columns and labels:
[1] = ELISA of EREG in HEK293 conditioned medium; conditions: glycan lost; control: EREG-WT
[2] = IF of GFP-EREG in HEK293, membrane localisation; conditions: glycan lost; control: GFP-EREG-WT, untreated
[3] = CHX chase immunoblot, protein remaining; conditions: glycan lost; control: untreated

| Substance | expression_or_secretion [1] | localisation_or_trafficking [2] | degradation_or_half_life [3] |
| --- | --- | --- | --- |
| Epiregulin (EREG): N47Q | decreases | decreases | – |
| Epiregulin (EREG): NGI-1 | – | decreases | decreases |
| Epiregulin (EREG): tunicamycin | – | decreases | decreases |
